B1: Insulin receptor substrate 1 (Rattus norvegicus (Rat)), P35570 (parent)
chain: MASPPDTDGFSDVRKVGYLRKPKSMHKRFFVLRAASEAGGPARLEYYENEKKWRHKSSAPKRSIPLESCFNINKRADSKNKHLVALYTRDEHFAIAADSEAEQDSWYQALLQLHNRAKAHHDGAGGGCGGSCSGSSGVGEAGEDLSYDTGPGPAFKEVWQVILKPKGLGQTKNLIGIYRLCLTSKTISFVKLNSEAAAVVLQLMNIRRCGHSENFFFIEVGRSAVTGPGEFWMQVDDSVVAQNMHETILEAMRAMSDEFRPRTKSQSSSSCSNPISVPLRRHHLNNPPPSQVGLTRRSRTESITATSPASMVGGKPGSFRVRASSDGEGTMSRPASVDGSPVSPSTNRTHAHRHRGSSRLHPPLNHSRSIPMPSSRCSPSATSPVSLSSSSTSGHGSTSDCLFPRRSSASVSGSPSDGGFISSDEYGSSPCDFRSSFRSVTPDSLGHTPPARGEEELSNYICMGGKGASTLTAPNGHYILSRGGNGHRYIPGATMGTSPALTGDEAAGAADLDNRFRKRTHSAGTSPTISHQKTPSQSSVVSIEEYTEMMPAAYPPGGGSGGRLPGYRHSAFVPTHSYPEEGLEMHHLERRGGHHRPDSSNLHTDDGYMPMSPGVAPVPSNRKGNGDYMPMSPKSVSAPQQIINPIRRHPQRVDPNGYMMMSPSGSCSPDIGGGSCSSSSISAAPSGSSYGKPWTNGVGGHHTHALPHAKPPVESGGGKLLPCTGDYMNMSPVGDSNTSSPSECYYGPEDPQHKPVLSYYSLPRSFKHTQRPGEPEEGARHQHLRLSSSSGRLRYTATAEDSSSSTSSDSLGGGYCGARPESSVTHPHHHALQPHLPRKVDTAAQTNSRLARPTRLSLGDPKASTLPRVREQQQQQQQQQQSSLHPPEPKSPGEYVNIEFGSGQPGYLAGPATSRSSPSVRCLPQLHPAPREETGSEEYMNMDLGPGRRATWQESGGVELGRVGPAPPGAASICRPTRSVPNSRGDYMTMQIGCPRQSYVDTSPVAPVSYADMRTGIAAEKVSLPRTTGAAPPPSSTASASASVTPQGAAEQAAHSSLLGGPQGPGGMSAFTRVNLSPNHNQSAKVIRADTQGCRRRHSSETFSAPTRAANTVSFGAGAAGGGSGGGSEDVKRHSSASFENVWLRPGDLGGASKESAPGCGAAGGLEKSLNYIDLDLVKDVKQHPQDCPSQQQSLPPPPPHQPLGSNEGSSPRRSSEDLSTYASINFQKQPEDRQ
partner: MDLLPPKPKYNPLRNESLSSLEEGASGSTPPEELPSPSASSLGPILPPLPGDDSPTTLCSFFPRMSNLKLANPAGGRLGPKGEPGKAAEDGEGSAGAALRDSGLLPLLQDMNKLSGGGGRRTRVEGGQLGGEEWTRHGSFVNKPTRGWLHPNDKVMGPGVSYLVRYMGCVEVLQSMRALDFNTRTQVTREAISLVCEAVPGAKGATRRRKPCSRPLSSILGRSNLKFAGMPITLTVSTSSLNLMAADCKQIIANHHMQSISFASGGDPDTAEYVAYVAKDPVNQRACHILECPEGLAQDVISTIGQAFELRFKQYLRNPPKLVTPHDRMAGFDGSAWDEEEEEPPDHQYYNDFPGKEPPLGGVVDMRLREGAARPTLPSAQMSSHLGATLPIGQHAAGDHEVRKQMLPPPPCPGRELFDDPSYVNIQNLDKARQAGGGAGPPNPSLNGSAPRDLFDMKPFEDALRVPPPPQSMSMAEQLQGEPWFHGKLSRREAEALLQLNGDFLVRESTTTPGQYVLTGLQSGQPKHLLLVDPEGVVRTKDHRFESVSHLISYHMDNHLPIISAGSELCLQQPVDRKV

Variants of: B1
Details: with shc1_mouse Shc1, P98083

| Variant | effect of a mutation on the interaction |
| --- | --- |
| Y895F | with no effect |
